Assay: yeast display, Sf9 membrane polyspecificity reagent, FACS + sequencing; frameworks hold sequencing errors
Procedure, shortened: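 Sorting gates, low and high (top ~1%), were placed on anti-HA fluorescence to track expression and on streptavidin fluorescence to track reagent binding. A clone's polyreactivity label is taken from the gate it came out of. The reagent was 10% biotinylated, detergent-solubilized Sf9 membrane, applied for 1 hour at 4 °C to galactose-induced yeast display cells.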

Q: For “QVQLVESGGGLVQAGGSLRLSCAASGLTFRYYAMGWYRQAPGKERELVAAITRRGSTYYADSVKGRFTISRDNAKNTVYLQMNSLKPEDTAVYYCATVTGFHSSPLRDLDYWGQGTQVTVSS”, which “polyreactivity (PSR sort gate)” value is on record?
A: high polyreactivity

Q: Which “polyreactivity (PSR sort gate)” value does the source give for “QVQLVESGGGLVQAGGSLRLSCAASGLTFRYYAMGWYRQAPGKERELVAAITRRGSTYYADSVQGRFTISRDNAKNTVYLQMNSLKPEDTAVYYCAADDPYTPQYPDVTYDYWGQGTQVTVSS” here?
A: high polyreactivity

Q: For “QVQLVESGGGLVQAGGSLRLSCAASGLTFRYYAMGWYRQAPGKEREWVASITSRGTSTYYADSVKGRFTISRDNAKNTVYLQMNSLKPEDTAVYYCAKPVGTVGYDYWGQGTQVTVSS”, which “polyreactivity (PSR sort gate)” value is on record?
A: high polyreactivity

Q: With “QVQLVESGGGLVQAGGSLRLSCAASGLTFRYYGMGWYRQAPGKERELVAAITSSGGSTRYADSVKGRFTISRDNAKNTVYLQMNSLKPEDTAVYYCAASTWYGYDYWGQGTQVTVSS” as the sequence, how does the “polyreactivity (PSR sort gate)” value read?
A: high polyreactivity

Q: Which “polyreactivity (PSR sort gate)” value does the source give for “QVQLVESGGGLVQAGGSLRLSCAASGLTFSDYAMGWYRQAPGKEREFVAAITRNGASTRYADSVKGRFTISRDNAKNTVYLQMNRLKPEDTAVYYCSTDVGFGRKQRPHRPGYGYWGQGTQVTVSS” here?
A: low polyreactivity

Q: With “QVQLVESGGGLVQAGGSLRLSCAASGLTFSINAMGWYIQAPGKERELVAAISRSGGRTYYADSVKGRFTISRDNAKNTVYLQMNSLKPEDTAVYYCAADKTQSHYDYWGQGTQVTVSS” as the sequence, how does the “polyreactivity (PSR sort gate)” value read?
A: high polyreactivity

Q: For “QVQLVESGGGLVQAGGSLRLSCAASGLTFSIYAMGWYRQAPGKERELVAAISSTGSTNYADSVKGRFTISRDNAKNTVYLQMNSLKPEDTAVYYCAAELQPSPVGGIIQYGFDYWGQGTQVTVSS”, which “polyreactivity (PSR sort gate)” value is on record?
A: low polyreactivity

Q: With “QVQLVESGGGLVQAGGSLRLSCAASGLTFSNYAMGWYRQAPGKEREFVAAISASGGSTYYAHSVKGRFTISRDYAKNTVYLQMNRLTPEDTAVYYCAASTTRPVYPANDDYWGQGTQVTVSS” as the sequence, how does the “polyreactivity (PSR sort gate)” value read?
A: low polyreactivity

Q: With “QVQLVESGGGLVQAGGSLRLSCAASGLTFSPYAMGWYRQAPGKERELVAAISYSGGSTYYADSVKGRFTISRDNAKNTVYLQMISLKPEDTAVYYCAVVVPNLLRDGRRMYYWGQGTQVTVSS” as the sequence, how does the “polyreactivity (PSR sort gate)” value read?
A: high polyreactivity

Q: Which “polyreactivity (PSR sort gate)” value does the source give for “QVQLVESGGGLVQAGGSLRLSCAASGLTFSRYAMGWYRQAPGKERELVAAISRRGGITYYADSVKGRFTISRDNAKNTVYLQMNSLKPEDTAVYYCNKDYGGELDYWGQGTQVSVSS” here?
A: high polyreactivity

Q: For “QVQLVESGGGLVQAGGSLRLSCAASGLTFSTNAMGWYRQAPGKEREFVAAISFNGGSTYYADSVKGRFTISRDNAKNTVYLQMNSLKPEDTAVYYWNAVKYRYLEYNYWGQGTQVTVSS”, which “polyreactivity (PSR sort gate)” value is on record?
A: high polyreactivity

Q: With “QVQLVESGGGLVQAGGSLRLSCAASGLTFSTYDMGGYRQAPGKERELVAAITSGDGSTYYADSVKGRFTISRDNAKNTVYLQMNSLKPEDTAVYYCAADYLEWYGDVLFPYDYWGQGTQVTVSS” as the sequence, how does the “polyreactivity (PSR sort gate)” value read?
A: low polyreactivity

Q: Which “polyreactivity (PSR sort gate)” value does the source give for “QVQLVESGGGLVQAGGSLRLSCAASGLTFSTYDMGWYRQAPGKERELVAAITSGDGSTYYADSVKGRFTISRDTAKNTVYLQMNSLKPEDTAVYYCAADYLEWYGDVLFPYDYWGQGTQVTVSS” here?
A: low polyreactivity

Q: Which “polyreactivity (PSR sort gate)” value does the source give for “QVQLVESGGGLVQAGGSLRLSCAASGLTFSVYAMGWYRQAPGKERELVASISSGGTSTYYADSVKGRFTISRDNAKNTVYLQMNSLKPEDTAVYYCAAYSYYTGDQYSYDYWGQGTQVTVSS” here?
A: low polyreactivity

Q: With “QVQLVESGGGLVQAGGSLRLSCAASGLTFSWNAMGWYRQAPGKERELVAAISSRGGSTYYADSVKGRFKISRDNAKNTVYLQMNSLKPEDTAVYYCNAHGRRFLGDYGYWGQGTQVTVSS” as the sequence, how does the “polyreactivity (PSR sort gate)” value read?
A: low polyreactivity

Q: Which “polyreactivity (PSR sort gate)” value does the source give for “QVQLVESGGGLVQAGGSLRLSCAASGLTFSYYTMGWYRQAPGKERELVAAISKSAGSTYYADSVKGRFTISRDNAKNTVYLQMNSLKPEDTAVYYCAARFGYQYSYGYNYWGQGTQVTVSS” here?
A: high polyreactivity

Q: Which “polyreactivity (PSR sort gate)” value does the source give for “QVQLVESGGGLVQAGGSLRLSCAASGLTFTHYALGWYRQAPGKERELVAAIAWRGGSTYYADSVKGRFTISRDNAKNTVYLQMNSLKPEDTAVYYCAVARSYRGEMDYWGQGTQVTVSS” here?
A: low polyreactivity

Q: With “QVQLVESGGGLVQAGGSLRLSCAASGLTFTNYAMGWYRQAPGKERELVAAISRSGARTYYADSVKGRFTISRDNAKNTVYLQMNSLKPEDTAVYYCATRYLSRGVYNYDYWGQGTQVTVSS” as the sequence, how does the “polyreactivity (PSR sort gate)” value read?
A: high polyreactivity

Q: With “QVQLVESGGGLVQAGGSLRLSCAASGLTFTPYTMGWYRQAPGKERELVAAITSSAARTYYADSVKGRFTISRDKAKNTVYFQMNSLKPEDTAVYYCNRYRLPSGRYEYWGQGTQVTVSS” as the sequence, how does the “polyreactivity (PSR sort gate)” value read?
A: high polyreactivity

Q: With “QVQLVESGGGLVQAGGSLRLSCAASGLTFTRYTMGWYRQAPGKERELVAAITSSGGSTYYADSVKGRFTISRDNAKNTVYLQMNSLKPEDTAVYYCAARYPGTRGDGYWGQGTQVTVSS” as the sequence, how does the “polyreactivity (PSR sort gate)” value read?
A: high polyreactivity

Q: With “QVQLVESGGGLVQAGGSLRLSCAASGLTFTSYAMGWYRQAPGKERELVAAITSGGSTYFADSVKGRFTISRDNAKNTVYLQMNSLKPEDTAVYYCNVTVYTRWYRSHSFWSTFRMDYWGQGTQVTVSS” as the sequence, how does the “polyreactivity (PSR sort gate)” value read?
A: low polyreactivity

Q: With “QVQLVESGGGLVQAGGSLRLSCAASGLTFTTYAMGWYRPAPGKERELVASIRTGGSTNYADSVKGRFTISRDNAKNTVYLQMNSLKPEETAVYYCAAGRRIDKRYEYWGQGTQFTVSS” as the sequence, how does the “polyreactivity (PSR sort gate)” value read?
A: low polyreactivity

Q: For “QVQLVESGGGLVQAGGSLRLSCAASGLTFVFYAMGWYRQAPGKERELVAAISSSGGSTNYADSVKGRFTISRDNAKNTVYLQMNSLKPEDTAVYYCNARGRSGGGRYDYWGQGTQVTVSS”, which “polyreactivity (PSR sort gate)” value is on record?
A: high polyreactivity

Q: Which “polyreactivity (PSR sort gate)” value does the source give for “QVQLVESGGGLVQAGGSLRLSCAASGLTFVFYAMGWYRQAPGNERELVAAISWSTGRTYYADSVKGRFTISRDNAKNTVYLQMNSLKPEDTAVYYCAASYLGRKYDYWGQGTQVTVSS” here?
A: high polyreactivity

Q: Which “polyreactivity (PSR sort gate)” value does the source give for “QVQLVESGGGLVQAGGSLRLSCAASGLTFVIYAMGWYRQAPGKERELVARITWSGGSTYYADSVKGRFTISRDNAKNTVYLQMNSLKPEETAVDYCAARRFYYYNAGYDSWGQGTQVTVSS” here?
A: low polyreactivity

Q: With “QVQLVESGGGLVQAGGSLRLSCAASGLTFVRYTMGWYRQAPGKVRELVAAITWSGGSTYYADSVKGRFTISRDNAKNTVYLQMNSLKPQDTAVYYCAARHRYWYGVTVDYWGQGTHVTVSS” as the sequence, how does the “polyreactivity (PSR sort gate)” value read?
A: high polyreactivity

Q: Which “polyreactivity (PSR sort gate)” value does the source give for “QVQLVESGGGLVQAGGSLRLSCAASGLTFVRYTMGWYRQPPGKVRELVAAITRGDGTNYADSVKGRFTISRDNAKNTVYLHLNCMKPEDTAVYLCADQEHFLWNYYAFDYWGQGTQVTVSS” here?
A: low polyreactivity

Q: Which “polyreactivity (PSR sort gate)” value does the source give for “QVQLVESGGGLVQAGGSLRLSCAASGLTFVVYAMGWYRQAPGKERELVASITSSGGRTYYADSVKGRFTISRDNAKNTVYLQMNSLKPEDTAVYYCNKYTWWLGSVDYWGQGTQVTVSS” here?
A: high polyreactivity

Q: With “QVQLVESGGGLVQAGGSLRLSCAASGLTFVYYAMGWYRQAPGKEMELVAAITSGGTTHYADSVKGRFTISRDNAKNTVYLQMNSLKPEDTAVYYCAATLGRWKRTYGYWGQGTQVTVSS” as the sequence, how does the “polyreactivity (PSR sort gate)” value read?
A: high polyreactivity

Q: For “QVQLVESGGGLVQAGGSLRLSCAASGLTFWAYFMGWYRQAPGKEREFVAAITLSSGSTYYADSVKGRFTISRDNEKNTVYLQMNSLKPEYTAVYYCAATRDYGYWMYSWGQGTQGTVSS”, which “polyreactivity (PSR sort gate)” value is on record?
A: high polyreactivity

Q: Which “polyreactivity (PSR sort gate)” value does the source give for “QVQLVESGGGLVQAGGSLRLSCAASGLTFWFYAMGWYRQAPGKERELVASISRGGRTYYADSVKGRFTISRDNAKNTVYLQMNSLKPEDTAVYYCIADELYYEYKDYDYWGQGTQVTVSS” here?
A: low polyreactivity

Q: For “QVQLVESGGGLVQAGGSLRLSCAASGLTFWKNVMGWYRQAPGKERELVAAISWSGDSTYYADSVKGRFTISRDNAKNTVYLQMNSLKPEDTAVYYCAARYVSRYWAGRYPTRQRDSWGQGTQVTVSS”, which “polyreactivity (PSR sort gate)” value is on record?
A: high polyreactivity

Q: For “QVQLVESGGGLVQAGGSLRLSCAASGLTFWLYAMGWYRPAPGKERELVAAITRSGGSTSYADSVKGRFTISRDNAKNTVYLQMNSLKPEDTAVYYCNADSPGYTAVRLVEFDYWGQGTQVTVSS”, which “polyreactivity (PSR sort gate)” value is on record?
A: low polyreactivity

Q: Which “polyreactivity (PSR sort gate)” value does the source give for “QVQLVESGGGLVQAGGSLRLSCAASGLTFWWYAMGWYRQAPGKERELVAAISSSGGSTYYADSVKGRFTISRDNAKNTVYLQMNSLKPEDTAVYYCAVASWDNYWDPYGYWGQGTQVTVSS” here?
A: low polyreactivity

Q: Which “polyreactivity (PSR sort gate)” value does the source give for “QVQLVESGGGLVQAGGSLRLSCAASGLTFYAYAMGWYRQAPVKERELVAAISVRGRSTYYADSVKGRFTISRDIAKNTVFLQMNSLKPEDTAVYYCAAEFYRVQNFQFYYWGQGTQVTVSS” here?
A: high polyreactivity

Q: Which “polyreactivity (PSR sort gate)” value does the source give for “QVQLVESGGGLVQAGGSLRLSCAASGLTFYDYAMGWYRQAPGKERELVADIDFNGGSTSYADSVKGRFTISRDNAKNTVYLQMNSLKPEDSAVYYCNSRDRGDVVTGLDYWGQGTQVTVSS” here?
A: low polyreactivity

Q: For “QVQLVESGGGLVQAGGSLRLSCAASGLTFYFYAMGWYRQAPGKERELVAAINSGGSTNYADSVKGRFTISRDNAKNTVYLQMNSLKPEDTAVYYCNADYYFTSYEYEYWGQGTQVTVSS”, which “polyreactivity (PSR sort gate)” value is on record?
A: low polyreactivity

Q: Which “polyreactivity (PSR sort gate)” value does the source give for “QVQLVESGGGLVQAGGSLRLSCAASGLTFYGYVMGWYRHAPGKERELVASISRSGGRTYYADSVKGRFTISRDNAKNTVYLQMNSLKAEDTAVYYCGAGDQVGQEDDYWGQGTQGTVSS” here?
A: low polyreactivity

Q: Which “polyreactivity (PSR sort gate)” value does the source give for “QVQLVESGGGLVQAGGSLRLSCAASGLTFYINDKGWYRQAPWKERELVAAINYSGGSTYYADSVKGRFTISRHNAKNTVYLQMNSLKPEDTAVYYCAADVSRWWGQHRYYSWGQGTQVTVSS” here?
A: high polyreactivity

Q: Which “polyreactivity (PSR sort gate)” value does the source give for “QVQLVESGGGLVQAGGSLRLSCAASGLTFYLNAMGWYRQAPGKERELVAGISYTGGSTYYADSVKGRFTISRDNAKNTVYLQMNSLKPEDTAVYYCARDNFYYGVWDYGYWGQGTQVTVSS” here?
A: low polyreactivity

Q: With “QVQLVESGGGLVQAGGSLRLSCAASGLTFYNYAMGWYIQAPGKERELVATITSSGARTYYADSVKGRFTISRDNAKNTVYLQMNSLTPEDTAVYYCAKQAYDQSPYNYWGQGTQVTVSS” as the sequence, how does the “polyreactivity (PSR sort gate)” value read?
A: high polyreactivity

Q: Which “polyreactivity (PSR sort gate)” value does the source give for “QVQLVESGGGLVQAGGSLRLSCAASGLTFYPNAMGWYRQAPGKERELVAGITSGGSTYYADSVKGRFTISRDNAKNTVYLQMNSLKPEDTAVYYCAAYYNFGDYEYDYWGQGTQVTVSS” here?
A: low polyreactivity

Q: For “QVQLVESGGGLVQAGGSLRLSCAASGLTFYPYAMGWYRQAPGKESELVAAINWSGTTTYYADSVKGRFTISRDNAKNTVYLQMNSLKPADTAVYYCNADVYYEPTTGYYLWDYDYWGQGTQVTVSS”, which “polyreactivity (PSR sort gate)” value is on record?
A: low polyreactivity
